The values that follow come from patent publication US20190077864A1 (ONCOMED PHARMACEUTICALS, published 2019).

Assay [1] addresses murine TIGIT (mTIGIT) on B3Z T-cell hybridoma cells (mouse) (UniProt P86176). Nature of the assay: cell-based or functional assay.
For assay [2], the target named is murine TIGIT (mTIGIT) tagged with FLAG and GFP, on cells (mouse) (UniProt P86176). Nature of the assay: cell-based or functional assay.
Assay [3] concerns the target T1, mouse TIGIT ECD-CD4TM-GFP on HEK-293T cells (mouse, UniProt P86176 29-148).
T1 construct: The legend names the construct as mouse TIGIT ECD; also called mouse TIGIT-CD4TM-GFP; mTIGIT-CD4TM-GFP; not shown: transmembrane domain of CD4 (CD4TM); GFP (green fluorescent protein)
T1 sequence: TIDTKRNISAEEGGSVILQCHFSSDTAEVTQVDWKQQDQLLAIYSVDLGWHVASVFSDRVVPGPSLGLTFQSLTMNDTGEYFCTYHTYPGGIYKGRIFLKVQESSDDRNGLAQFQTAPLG
The assay can be described thus: flow cytometry of rabbit antibody supernatant on HEK-293T cells transiently transfected with mouse TIGIT ECD-CD4TM-GFP; antibody signal against GFP. In general terms: In flow cytometry, cells or beads pass a laser one at a time.

Assay [4] has as its target T1, mouse TIGIT ECD-CD4TM-GFP on HEK-293T …. The assay can be described thus: flow cytometry, 1 µg/ml antibody on transiently transfected HEK-293T cells, PE-conjugated anti-Fc secondary, signal against TIGIT-GFP. As for the experimental part: The TIGIT variants were evaluated by FACS with anti-hTIGIT antibodies. […] After 16 hours, transfected cells were suspended in ice cold HBSS containing 2% FBS and incubated on ice with 1 μg/ml anti-hTIGIT antibodies 313R12, 313M32, or 313M34 for 30 minutes. 313M34 is an anti-hTIGIT antibody that was generated based upon the amino acid sequences of the 10A7 antibody described in U.S. Publication 2009/0258013. The 10A7 antibody is an anti-mouse TIGIT antibody that binds both mouse TIGIT and human TIGIT. A second incubation with 50 μl PE-conjugated anti-Fc secondary antibody was performed to detect cells bound by the antibodies. The cells were analyzed on a FACSCanto instrument (BD Biosciences) and the data was processed using FlowJo software.

The next assay deals with T2, hPVR-rbFc fusion protein (human, UniProt P15151 21-343).
T2 construct: extracellular domain; Expressed in CHO cells, purified on protein A; also called human PVR-rabbit Fc fusion protein; not shown: rabbit Fc region
T2 sequence (looked up): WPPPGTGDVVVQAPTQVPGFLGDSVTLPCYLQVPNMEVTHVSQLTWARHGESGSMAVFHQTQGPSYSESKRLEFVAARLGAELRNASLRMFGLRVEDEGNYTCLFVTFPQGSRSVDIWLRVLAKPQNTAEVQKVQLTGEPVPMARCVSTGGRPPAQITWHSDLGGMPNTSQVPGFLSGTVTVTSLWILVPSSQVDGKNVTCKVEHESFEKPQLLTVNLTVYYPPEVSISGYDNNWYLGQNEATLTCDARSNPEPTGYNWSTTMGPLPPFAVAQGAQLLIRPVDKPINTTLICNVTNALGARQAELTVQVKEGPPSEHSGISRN
Nature of the assay: flow cytometry of hPVR-rbFc on HEK-293T cells with hTIGIT-CD4TM-GFP, detected with anti-rabbit Fc-PE, no antibody added. As for the experimental part: FIGS. 19A and 19B. FACS analysis of anti-TIGIT antibody blocking binding of human TIGIT to PVR. […] Transfected cells were incubated with soluble human PVR-Fc fusion protein in the presence of antibodies generated to TIGIT (313R19, 313M26, or 313M32) at concentrations of 10, 2, or 0.4 μg/ml or no antibody and analyzed by flow cytometry. Specific binding is indicated by the presence of a diagonal signal within a FACS plot. […] Specific binding is indicated by the presence of a diagonal signal within a FACS plot.
After 16 hours, transfected cells were suspended in ice cold HBSS containing 2% FBS and heparin and incubated on ice with 0.5 μg/ml hPVR-rbFc fusion protein in the presence of anti-TIGIT antibodies 313R19, 313M26, or 313M32 for 60 minutes. Antibody 313R19 is a humanized version of a rabbit anti-TIGIT antibody. 313R19 binds mouse and human TIGIT. The antibodies were tested at concentrations of 10, 2, and 0.4 ug/ml. Cells were incubated without antibody or without hPVR-rbFc as controls. A second incubation with 100 μl PE-conjugated anti-rabbit Fc secondary antibody was performed to detect cells bound by the hPVR-rbFc fusion protein. The cells were analyzed on a FACSCanto instrument (BD Biosciences) and the data was processed using FlowJo software.

A further assay has as its target T3, human TIGIT (human, UniProt Q495A1 22-141, limits assumed).
T3 construct: also called hTIGIT
T3 sequence: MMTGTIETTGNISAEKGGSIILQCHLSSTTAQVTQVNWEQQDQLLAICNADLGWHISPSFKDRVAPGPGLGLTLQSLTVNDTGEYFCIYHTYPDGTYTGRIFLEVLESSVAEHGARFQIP
Nature of the assay: Biacore, preliminary; format not stated. Background: SPR reads the build-up and loss of mass on a sensor chip optically.

The term Kd denotes a measure of binding affinity in units of concentration. High values mean lower affinity, low ones higher affinity.

With murine PVR (mPVR) on cells (ligand), the ratio of IL-2 secretion in response to mPVR-expressing tumor cells to that in response to mPVR-negative tumor cells (ELISA) in assay [1] was less than 1. In addition, the ratio of NK-92 cytotoxicity against 721.221-mPVR cells to that against parental 721.221 cells (calcein release) in assay [2] was less than 1.

B1: anti-TIGIT antibody 313Rb1 (antibody, V domains shown)
VH: QVQLESEGGLFKPTDTLTLTCTVSGSSLSSSYMSWVRQAPGKGLEWIGIIGSNGNTYYANWAKGRFTISKTSTTVELKITSPTTEDTATYFCARGGYRTSGMDPWGPGTLVTVSS
VL: DIVMTQTPASVEVAVGGTVTIKCQASQSISSYLNWYQQKPGQPPKLLIYDALKLASGVPSRFSGSGSGTEYTLTISGVESADAATYYCQQEHSVGNVDNVFGGGTEVVVKR
notes: Rabbit antibody raised against the extracellular domain of mouse TIGIT
Regarding B1, the binding result in assay [3] is “binds”.

B2: anti-TIGIT antibody 313R12 (antibody, mouse IgG2a, kappa, V domains shown)
VH: QVQLESEGGLFKPTDTLTLTCTVSGSSLSSSYMSWVRQAPGKGLEWIGIIGSNGNTYYANWAKGRFTISKTSTTVELKITSPTTEDTATYFCARGGYRTSGMDPWGPGTLVTVSS
VL: DIVMTQTPASVEVAVGGTVTIKCQASQSISSYLNWYQQKPGQPPKLLIYDALKLASGVPSRFSGSGSGTEYTLTISGVESADAATYYCQQEHSVGNVDNVFGGGTEVVVKR
notes: Chimeric antibody: variable regions of 313Rb1 in a mouse IgG2a format
For the molecule B2, in assay [4], the binding result is reported as “binds”.

B3: hTIGIT-CD4TM-GFP on HEK-293T cells (receptor)
chain: MMTGTIETTGNISAEKGGSIILQCHLSSTTAQVTQVNWEQQDQLLAICNADLGWHISPSFKDRVAPGPGLGLTLQSLTVNDTGEYFCIYHTYPDGTYTGRIFLEVLESSVAEHGARFQIP
notes: Cell surface fusion protein, transiently expressed; also called human TIGIT ECD-CD4TM-GFP; FLAG-hTIGIT-CD4TM-GFP; not shown: transmembrane domain of CD4 (CD4TM); C-terminal GFP protein tag
On to B3, for which the binding result with hPVR-rbFc fusion protein was “binds”.

B4: anti-TIGIT antibody 313R19 (antibody, human IgG1, kappa, V domains shown)
VH: QVQLQESGPGLVKPSETLSLTCTVSGFSLSSSYMSWIRQPPGKGLEWIGIIGSNGNTYYANWAKGRVTISKSSNQVSLKLSSVTAADTAVYYCARGGYRTSGMDPWGQGTLVTVSS
VL: DIQMTQSPSSLSASVGDRVTITCQASQNIYSDLAWYQQKPGKAPKLLIYRASTLASGVPSRFSGSGSGTDFTLTISSLQPEDFATYYCQQEHLVAWIYNVFGQGTKVEIKR
notes: Humanized rabbit antibody, human IgG1
With B4, the dissociation constant Kd with human TIGIT is 2 nM.
